Biological target: spike protein of SARS-CoV-2 clinical isolate HH01 (Wuhan-like), on live virus (SARS-CoV-2 (Wuhan-like HH01)) (UniProt P0DTC2)
Assay: cell-based or functional assay

Substance | IC50, inhibition of SARS-CoV-2 HH01 replication on Calu-3 cells | IC90, inhibition of SARS-CoV-2 HH01 replication on Calu-3 cells
virus-binding conjugate P: PLGA-PEG-Mal / PLGA (1:1) particle loaded with LCB1 | 4.86 µg/mL | 4.99 µg/mL
virus-binding conjugate S: PLGA-only particle incubated with LCB1 (control, adsorbed minibinder) | 1 to 10 µg/mL | –
recombinant minibinder LCB1 with N- and C-terminal Ser/Gly extensions and C-terminal Cys (designed binder) | 10 to 100 nM | –
